PMC3988174, “A Split-Ubiquitin Yeast Two-Hybrid Screen to Examine the Substrate Specificity of atToc159 and atToc132, Two Arabidopsis Chloroplast Preprotein Import Receptors” (PLoS ONE, 2014)

B1: Photosystem I light harvesting complex gene 2 (natural protein, Arabidopsis thaliana, UniProt Q9SYW8 1-257, looked up)
chain: MASSLCASSAIAAISSPSFLGGKKLRLKKKLTVPAVSRPDASVRAVAADPDRPIWFPGSTPPEWLDGSLPGDFGFDPLGLSSDPDSLKWNVQAEIVHCRWAMLGAAGIFIPEFLTKIGILNTPSWYTAGEQEYFTDKTTLFVVELILIGWAEGRRWADIIKPGSVNTDPVFPNNKLTGTDVGYPGGLWFDPLGWGSGSPAKLKELRTKEIKNGRLAMLAVMGAWFQHIYTGTGPIDNLFAHLADPGHATIFAAFTPK
B2: Ferredoxin-thioredoxin reductase subunit A (natural protein, Arabidopsis thaliana, UniProt Q9SJ89 1-146, looked up)
chain: MNLQAVSCSFGFLSSPLGVTPRTSFRRFVIRAKTEPSEKSVEIMRKFSEQYARRSGTYFCVDKGVTSVVIKGLAEHKDSYGAPLCPCRHYDDKAAEVGQGFWNCPCVPMRERKECHCMLFLTPDNDFAGKDQTITSDEIKETTANM
B3: Photosystem I subunit F (natural protein, Arabidopsis thaliana, UniProt Q9SHE8 1-221, looked up)
chain: MSLTIPANLVLNPRSNKSLTQSVPKSSARFVCSDDKSSSSTPQSMKAFSAAVALSSILLSAPMPAVADISGLTPCKDSKQFAKREKQQIKKLESSLKLYAPESAPALALNAQIEKTKRRFDNYGKYGLLCGSDGLPHLIVNGDQRHWGEFITPGILFLYIAGWIGWVGRSYLIAISGEKKPAMKEIIIDVPLASRIIFRGFIWPVAAYREFLNGDLIAKDV
B4: 5′-Adenylylsulfate reductase 2 (natural protein, Arabidopsis thaliana, UniProt P92981 1-454, looked up)
chain: MALAVTSSSTAISGSSFSRSGASSESKALQICSIRLSDRTHLSQRRYSMKPLNAESHSRSESWVTRASTLIAPEVEEKGGEVEDFEQLAKKLEDASPLEIMDKALERFGDQIAIAFSGAEDVALIEYARLTGKPFRVFSLDTGRLNPETYRLFDAVEKQYGIRIEYMFPDAVEVQALVRNKGLFSFYEDGHQECCRVRKVRPLRRALKGLKAWITGQRKDQSPGTRSEIPIVQVDPVFEGLDGGVGSLVKWNPLANVEGADVWNFLRTMDVPVNALHAQGYVSIGCEPCTRPVLPGQHEREGRWWWEDAKAKECGLHKGNIKEEDGAADSKPAAVQEIFESNNVVALSKGGVENLLKLENRKEAWLVVLYAPWCPFCQAMEASYIELAEKLAGKGVKVAKFRADGEQKEFAKQELQLGSFPTILLFPKRAPRAIKYPSEHRDVDSLMSFVNLLR
B5: Photosystem I light harvesting complex gene 3 (natural protein, Arabidopsis thaliana, UniProt Q9SY97 1-273, looked up)
chain: MAAQALVSSSLTSSVQTARQIFGSKPVASASQKKSSFVVKAAATPPVKQGANRPLWFASSQSLSYLDGSLPGDYGFDPLGLSDPEGTGGFIEPRWLAYGEIINGRFAMLGAAGAIAPEILGKAGLIPAETALPWFQTGVIPPAGTYTYWADNYTLFVLEMALMGFAEHRRLQDWYNPGSMGKQYFLGLEKGLAGSGNPAYPGGPFFNPLGFGKDEKSLKELKLKEVKNGRLAMLAILGYFIQGLVTGVGPYQNLLDHLADPVNNNVLTSLKFH
B6: Protochlorophyllide oxidoreductase B (natural protein, Arabidopsis thaliana, UniProt P21218 1-401, looked up)
chain: MALQAASLVSSAFSVRKDAKLNASSSSFKDSSLFGASITDQIKSEHGSSSLRFKREQSLRNLAIRAQTAATSSPTVTKSVDGKKTLRKGNVVVTGASSGLGLATAKALAETGKWNVIMACRDFLKAERAAKSVGMPKDSYTVMHLDLASLDSVRQFVDNFRRTETPLDVLVCNAAVYFPTAKEPTYSAEGFELSVATNHLGHFLLARLLLDDLKKSDYPSKRLIIVGSITGNTNTLAGNVPPKANLGDLRGLAGGLNGLNSSAMIDGGDFDGAKAYKDSKVCNMLTMQEFHRRFHEETGVTFASLYPGCIASTGLFREHIPLFRALFPPFQKYITKGYVSETESGKRLAQVVSDPSLTKSGVYWSWNNASASFENQLSEEASDVEKARKVWEISEKLVGLA
B7: Photosystem I reaction center subunit PSI-N (natural protein, Arabidopsis thaliana, UniProt P49107 1-171, looked up)
chain: MAAMNSSVLTCSYAIAGSGSVELNQKVGLVNSSVGFGQKKQMIMPVIKAQRVVGDDVDGSNGRRSAMVFLAATLFSTAAVSASANAGVIDEYLERSKTNKELNDKKRLATSGANFARAFTVQFGSCKFPENFTGCQDLAKQKKVPFISEDIALECEGKDKYKCGSNVFWKW
B8: AIG2-like avirulence induced gene family protein (natural protein, Arabidopsis thaliana, UniProt Q9MBH2 1-169, looked up)
chain: MTSSDKSLSHDVFVYGSFQEPSVVNLILECSPVMVPAQLHGYHVYRLKGRLHACISPSENGLINGKILTGLTDSQLENLDMIEGSEYVRKTVEVVLTDTSEKKQVETYVWANKDDPNLYGEWDFEEWRRLHMDKFIEASTKFIEWKKNPDGRSREEFEKFVFDDPPTAA
B9: Low PSII accumulation 3 protein (natural protein)
chain: not shown
B10: Photosystem I light harvesting complex gene 1 (natural protein, Arabidopsis thaliana, UniProt Q01667 1-241, looked up)
chain: MASNSLMSCGIAAVYPSLLSSSKSKFVSAGVPLPNAGNVGRIRMAAHWMPGEPRPAYLDGSAPGDFGFDPLGLGEVPANLERYKESELIHCRWAMLAVPGILVPEALGYGNWVKAQEWAALPGGQATYLGNPVPWGTLPTILAIEFLAIAFVEHQRSMEKDPEKKKYPGGAFDPLGYSKDPKKLEELKVKEIKNGRLALLAFVGFCVQQSAYPGTGPLENLATHLADPWHNNIGDIVIPFN
B11: Cytochrome b561-2 (natural protein, Arabidopsis thaliana, UniProt Q8L856 1-239, looked up)
chain: MAVRINAMAVTFVAHALAVIAAIMVLVWSISYRGGLAWEATNKNLIFNLHPVLMLIGFIILGGEAIISYKSLPLEKPVKKLIHLILHAIALALGIFGICAAFKNHNESHIPNLYSLHSWIGIGVISLYGFQWVYSFIVFFFPGGSTNLKSGLLPWHAMLGLFVYILAVGNAALGFLEKLTFLENGGLDKYGSEAFLINFTAIITILFGAFVVLTASAESPSPSPSVSNDDSVDFSYSAI
B12: Violaxanthin Deepoxidase (natural protein, Arabidopsis thaliana, UniProt Q39249 1-462, looked up)
chain: MAVATHCFTSPCHDRIRFFSSDDGIGRLGITRKRINGTFLLKILPPIQSADLRTTGGRSSRPLSAFRSGFSKGIFDIVPLPSKNELKELTAPLLLKLVGVLACAFLIVPSADAVDALKTCACLLKGCRIELAKCIANPACAANVACLQTCNNRPDETECQIKCGDLFENSVVDEFNECAVSRKKCVPRKSDLGEFPAPDPSVLVQNFNISDFNGKWYITSGLNPTFDAFDCQLHEFHTEGDNKLVGNISWRIKTLDSGFFTRSAVQKFVQDPNQPGVLYNHDNEYLHYQDDWYILSSKIENKPEDYIFVYYRGRNDAWDGYGGAVVYTRSSVLPNSIIPELEKAAKSIGRDFSTFIRTDNTCGPEPALVERIEKTVEEGERIIVKEVEEIEEEVEKEVEKVGRTEMTLFQRLAEGFNELKQDEENFVRELSKEEMEFLDEIKMEASEVEKLFGKALPIRKVR
B13: Cysteine synthase (natural protein)
chain: not shown

The binders below were run against T1, atToc132 A- plus G-domains bait (Arabidopsis thaliana, UniProt Q9SLF3 1-794) (assay: two-hybrid; pairwise split-ubiquitin yeast two-hybrid of isolated NubG-preys with Toc159G, Toc132G or Toc132AG bait in NMY51; growth on SD-LWHA (3-AT) and quantitative β-Gal assay, activity relative to a reference bait set to 100%). Conditions: partners not purified.
T1 construct: atToc132, A. thaliana, A- and G-domains, amino acids 1-794; also called Toc132AG; atToc132AG; source: yeast two-hybrid fusion (pBT3-STE, S. cerevisiae NMY51); not shown: STE2 leader (N-terminal 13 amino acids of S. cerevisiae Ste2), N-terminal, kept; Cub-LexA-VP16, C-terminal, kept
T1 sequence (Q9SLF3 1-794): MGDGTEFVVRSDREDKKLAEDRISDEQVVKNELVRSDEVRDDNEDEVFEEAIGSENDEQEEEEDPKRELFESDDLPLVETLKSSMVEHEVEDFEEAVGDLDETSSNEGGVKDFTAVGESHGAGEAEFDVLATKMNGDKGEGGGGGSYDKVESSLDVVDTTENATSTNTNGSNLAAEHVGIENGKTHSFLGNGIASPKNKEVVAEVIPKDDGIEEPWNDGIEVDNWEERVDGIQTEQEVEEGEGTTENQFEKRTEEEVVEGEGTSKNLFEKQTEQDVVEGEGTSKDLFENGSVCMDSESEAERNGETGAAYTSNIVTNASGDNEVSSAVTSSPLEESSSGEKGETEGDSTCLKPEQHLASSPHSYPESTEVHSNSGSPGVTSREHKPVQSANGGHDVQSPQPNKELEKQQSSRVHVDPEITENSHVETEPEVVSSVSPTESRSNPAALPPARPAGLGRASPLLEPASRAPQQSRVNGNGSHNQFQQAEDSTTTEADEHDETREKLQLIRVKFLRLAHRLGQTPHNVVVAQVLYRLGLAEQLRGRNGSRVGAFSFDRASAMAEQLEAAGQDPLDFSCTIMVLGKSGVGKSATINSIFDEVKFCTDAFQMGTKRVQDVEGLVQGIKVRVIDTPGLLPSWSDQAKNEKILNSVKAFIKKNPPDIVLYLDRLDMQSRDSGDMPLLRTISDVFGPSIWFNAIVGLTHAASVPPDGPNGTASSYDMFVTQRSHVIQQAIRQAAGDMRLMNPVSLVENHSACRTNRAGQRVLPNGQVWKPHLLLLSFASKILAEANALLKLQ

**Q.** How did the “relative strength of interaction (β-Gal) with Toc132AG against Toc132G, % change” value (“relative strength of interaction … % change” below) turn out when B1 was run?
**A.** -36.4%

**Q.** For B2, which “relative strength of interaction … % change” value is on record?
**A.** -15%

**Q.** How did the “relative strength of interaction … % change” value turn out when B3 was run?
**A.** -25.5%

**Q.** With B4 as the binder, how does the “% increase in strength of interaction (β-Gal) with Toc132AG against Toc132G” value (“% increase in strength of interaction” for short) read?
**A.** 24.5%

**Q.** For B5, which “relative strength of interaction … % change” value is on record?
**A.** -26.8%

**Q.** B6 was tested. Which “relative strength of interaction … % change” value did it give?
**A.** -34.7%

**Q.** B7 was tested. Which “relative strength of interaction … % change” value did it give?
**A.** -25.4%

**Q.** B8 was tested. Which “% increase in strength of interaction” value did it give?
**A.** 41.3%

**Q.** For B9, which “relative strength of interaction … % change” value is on record?
**A.** -11.7%

**Q.** B10 was tested. Which “relative strength of interaction … % change” value did it give?
**A.** -24.5%

**Q.** How did the “% increase in strength of interaction” value turn out when B11 was run?
**A.** 49.6%

**Q.** Which “relative strength of interaction … % change” value does the source give for B12 here?
**A.** -29.9%

**Q.** For B13, which “% increase in strength of interaction” value is on record?
**A.** 175%
